Reference: article PMC4191429, “Interactions of the yeast mitochondrial RNA polymerase with the +1 and +2 promoter bases dictate transcription initiation efficiency”

B1: 21S rRNA promoter (+1+2 AG), 2-AP at -1 template (dsDNA)
DNA 1: TATTATTATTATTATATATATAAGTAGTAAAAAGTAGAATAATCT
DNA 2: AGATTATTCTACTTTTTACTACTTATATATATAATAATAATAATA
modifications: 2-aminopurine at -1 template
B2: 15S rRNA promoter (+1+2 AA), 2-AP at -1 template (dsDNA)
DNA 1: ATAATTTATTTATTATTATATAAGTAATAAATAATAGTTTTATCT
DNA 2: AGATAAAACTATTATTTATTACTTATATAATAATAAATAAATTAT
modifications: 2-aminopurine at -1 template

Assays:
Conditions in all cases: protein: recombinant;recombinant; tags: Ni2+ column purified; copies: 1;1; label: 2-aminopurine
[1] = biological target: T1, Rpo41 (mitochondrial RNA polymerase);Mtf1 (mitochondrial transcription initiation factor) (Saccharomyces cerevisiae;Saccharomyces …, UniProt P13433;P14908 1-1351;2-341, |); experiment: 2-aminopurine fluorescence; ATP+GTP; 2-AP assay buffer, salt, pH and temperature not in the material (transcription assays at 25 C)
T1 sequence (P13433 whole entry, chain 1 of 2): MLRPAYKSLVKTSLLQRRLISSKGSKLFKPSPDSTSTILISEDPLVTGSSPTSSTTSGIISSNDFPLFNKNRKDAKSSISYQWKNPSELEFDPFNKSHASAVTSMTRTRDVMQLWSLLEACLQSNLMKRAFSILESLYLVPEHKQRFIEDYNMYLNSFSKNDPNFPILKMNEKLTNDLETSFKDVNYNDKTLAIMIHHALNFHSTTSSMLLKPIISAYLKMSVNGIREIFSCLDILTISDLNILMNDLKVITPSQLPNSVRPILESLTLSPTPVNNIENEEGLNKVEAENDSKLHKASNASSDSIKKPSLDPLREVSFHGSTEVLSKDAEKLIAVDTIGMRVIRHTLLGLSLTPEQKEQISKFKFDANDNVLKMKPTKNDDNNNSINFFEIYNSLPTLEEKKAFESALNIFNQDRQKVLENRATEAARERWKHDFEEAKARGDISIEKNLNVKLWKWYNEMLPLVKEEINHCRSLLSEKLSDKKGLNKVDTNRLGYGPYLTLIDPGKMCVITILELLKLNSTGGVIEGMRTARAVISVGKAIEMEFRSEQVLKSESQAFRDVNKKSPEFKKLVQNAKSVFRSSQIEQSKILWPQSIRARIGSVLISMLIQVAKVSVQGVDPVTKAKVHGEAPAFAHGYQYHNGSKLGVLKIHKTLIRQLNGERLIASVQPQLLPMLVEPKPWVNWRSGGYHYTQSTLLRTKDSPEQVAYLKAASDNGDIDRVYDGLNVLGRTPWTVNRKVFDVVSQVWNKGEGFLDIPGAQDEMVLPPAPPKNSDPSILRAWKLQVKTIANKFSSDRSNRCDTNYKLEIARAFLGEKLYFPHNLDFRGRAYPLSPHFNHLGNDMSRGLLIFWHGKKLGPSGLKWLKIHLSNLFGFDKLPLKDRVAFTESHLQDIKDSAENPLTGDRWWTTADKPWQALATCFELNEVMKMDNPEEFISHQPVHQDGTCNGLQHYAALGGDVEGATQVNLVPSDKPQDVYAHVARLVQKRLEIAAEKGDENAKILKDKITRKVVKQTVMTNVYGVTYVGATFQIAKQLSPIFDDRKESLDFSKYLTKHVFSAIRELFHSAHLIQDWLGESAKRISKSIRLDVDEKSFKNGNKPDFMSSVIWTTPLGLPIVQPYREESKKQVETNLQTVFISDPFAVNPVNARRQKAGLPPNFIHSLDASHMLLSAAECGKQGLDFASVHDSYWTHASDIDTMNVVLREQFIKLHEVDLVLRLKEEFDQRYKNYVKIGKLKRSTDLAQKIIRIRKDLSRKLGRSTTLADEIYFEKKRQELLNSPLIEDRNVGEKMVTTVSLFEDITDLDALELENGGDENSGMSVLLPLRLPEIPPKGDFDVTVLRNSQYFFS
T1 sequence (P14908 2-341, chain 2 of 2): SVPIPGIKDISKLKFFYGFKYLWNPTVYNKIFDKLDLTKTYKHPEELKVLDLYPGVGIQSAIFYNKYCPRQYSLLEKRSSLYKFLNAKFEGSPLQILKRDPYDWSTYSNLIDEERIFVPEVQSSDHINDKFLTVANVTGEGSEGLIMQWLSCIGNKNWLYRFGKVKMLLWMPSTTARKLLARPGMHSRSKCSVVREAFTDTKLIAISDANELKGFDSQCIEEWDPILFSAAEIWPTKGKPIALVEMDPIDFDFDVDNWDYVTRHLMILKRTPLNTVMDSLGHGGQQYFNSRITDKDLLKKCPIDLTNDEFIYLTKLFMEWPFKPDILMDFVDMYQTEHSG

[2] = biological target: T1, Rpo41 (mitochondrial RNA …); experiment: 2-aminopurine fluorescence; no NTP; 2-AP assay buffer, salt, pH and temperature not in the material (transcription assays at 25 C)
[3] = biological target: T1, Rpo41 (mitochondrial RNA …); experiment: 2-aminopurine fluorescence; ATP; 2-AP assay buffer, salt, pH and temperature not in the material (transcription assays at 25 C)

Binder	binding signal [1]	binding signal [2]	binding signal [3]
B1	~4 further fold 2-AP fluorescence increase over the complex without NTP	~5 fold 2-AP fluorescence increase	
B2		~5 fold 2-AP fluorescence increase	~4 further fold 2-AP fluorescence increase over the complex without NTP
